Assay results: US20260176319A1 (KALLYOPE, published 2026)
Starred links: 1 amine or outer side, 2 acyl side, 3 side chain; linkers in the order of their positions; H or OH if unused. Non-standard residues stand in square brackets, D forms with d. Primed or numbered codes have the meaning given here. *: point of attachment. Trp(7-Me) = Cc1cccc2c(C[C@H](N)C(=O)O)c[nH]c12; C20 diacid = O=C(O)CCCCCCCCCCCCCCCCCCC(=O)*; d(γGlu) = O=C(O)[C@@H](CCC(=O)[*:2])N[*:1]; αMeW = C[C@](N)(Cc1c[nH]c2ccccc12)C(=O)O; γGlu = O=C(O)[C@H](CCC(=O)[*:2])N[*:1]; NMeH = CN[C@@H](Cc1c[nH]cn1)C(=O)O; Palmitoyl = CCCCCCCCCCCCCCCC(=O)*; Hyp = O=C(O)[C@@H]1C[C@@H](O)CN1; 3Pal = N[C@@H](Cc1cccnc1)C(=O)O; Met(O) = CS(=O)CC[C@H](N)C(=O)O; Nle = CCCC[C@H](N)C(=O)O; PEG5′ = not defined here; ACBA = not defined here; ACPA = not defined here; ACPC = not defined here; AEEA = NCCOCCOCC(=O)O; Aib = CC(C)(N)C(=O)O; βAla = NCCC(=O)O; Sar = CNCC(=O)O

biological target: human GRP receptor (human, UniProt P30550 1-384); assay: cell-based or functional assay
Sequence (P30550 whole entry): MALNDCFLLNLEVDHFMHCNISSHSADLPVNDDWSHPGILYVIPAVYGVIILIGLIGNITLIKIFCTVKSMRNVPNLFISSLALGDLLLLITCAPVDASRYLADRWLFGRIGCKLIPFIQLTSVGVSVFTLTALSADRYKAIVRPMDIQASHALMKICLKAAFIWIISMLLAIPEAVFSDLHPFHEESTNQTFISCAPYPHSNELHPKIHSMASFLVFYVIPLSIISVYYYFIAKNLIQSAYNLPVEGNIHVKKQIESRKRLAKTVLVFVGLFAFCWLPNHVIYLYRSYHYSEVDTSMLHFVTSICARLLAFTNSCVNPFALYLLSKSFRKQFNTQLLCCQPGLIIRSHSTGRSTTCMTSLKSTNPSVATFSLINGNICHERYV

Binder	hIP1 GRPR EC50 [nM]
Palmitoyl-[d(γGlu)][AEEA][AEEA]GNHWAV[Aib]HL[Nle]-NH2 (SMILES CCCCCCCCCCCCCCCC(=O)N[C@H](CCC(=O)NCCOCCOCC(=O)NCCOCCOCC(=O)NCC(=O)N[C@@H](CC(N)=O)C(=O)N[C@@H](Cc1c[nH]cn1)C(=O)N[C@@H](Cc1c[nH]c2ccccc12)C(=O)N[C@@H](C)C(=O)N[C@H](C(=O)NC(C)(C)C(=O)N[C@@H](Cc1c[nH]cn1)C(=O)N[C@@H](CC(C)C)C(=O)N[C@@H](CCCC)C(N)=O)C(C)C)C(=O)O) [Peptide 1]	6.9
{C20 diacid}-[γGlu][AEEA][AEEA][Hyp]QHWAV[βAla]HL[Nle]-NH2 (SMILES CCCC[C@H](NC(=O)[C@H](CC(C)C)NC(=O)[C@H](Cc1c[nH]cn1)NC(=O)CCNC(=O)[C@@H](NC(=O)[C@H](C)NC(=O)[C@H](Cc1c[nH]c2ccccc12)NC(=O)[C@H](Cc1c[nH]cn1)NC(=O)[C@H](CCC(N)=O)NC(=O)[C@@H]1C[C@@H](O)CN1C(=O)COCCOCCNC(=O)COCCOCCNC(=O)CC[C@H](NC(=O)CCCCCCCCCCCCCCCCCCC(=O)O)C(=O)O)C(C)C)C(N)=O) [Peptide 269]	2.4
{C20 diacid}-[γGlu][AEEA][AEEA]PQHWAV[βAla]HL[Nle]-NH2 (SMILES CCCC[C@H](NC(=O)[C@H](CC(C)C)NC(=O)[C@H](Cc1c[nH]cn1)NC(=O)CCNC(=O)[C@@H](NC(=O)[C@H](C)NC(=O)[C@H](Cc1c[nH]c2ccccc12)NC(=O)[C@H](Cc1c[nH]cn1)NC(=O)[C@H](CCC(N)=O)NC(=O)[C@@H]1CCCN1C(=O)COCCOCCNC(=O)COCCOCCNC(=O)CC[C@H](NC(=O)CCCCCCCCCCCCCCCCCCC(=O)O)C(=O)O)C(C)C)C(N)=O) [Peptide 268]	4.3
Palmitoyl-[d(γGlu)][AEEA][AEEA]GEH[Trp(7-Me)][Aib]V[dA][3Pal]L[Nle][Sar]-NH2 (SMILES CCCCCCCCCCCCCCCC(=O)N[C@H](CCC(=O)NCCOCCOCC(=O)NCCOCCOCC(=O)NCC(=O)N[C@@H](CCC(=O)O)C(=O)N[C@@H](Cc1c[nH]cn1)C(=O)N[C@@H](Cc1c[nH]c2c(C)cccc12)C(=O)NC(C)(C)C(=O)N[C@H](C(=O)N[C@H](C)C(=O)N[C@@H](Cc1cccnc1)C(=O)N[C@@H](CC(C)C)C(=O)N[C@@H](CCCC)C(=O)N(C)CC(N)=O)C(C)C)C(=O)O) [Peptide 19]	> 1000
Palmitoyl-[d(γGlu)][AEEA][AEEA]GNH[Trp(7-Me)][Aib]V[dA][3Pal]L[Nle][Sar]-NH2 (SMILES CCCCCCCCCCCCCCCC(=O)N[C@H](CCC(=O)NCCOCCOCC(=O)NCCOCCOCC(=O)NCC(=O)N[C@@H](CC(N)=O)C(=O)N[C@@H](Cc1c[nH]cn1)C(=O)N[C@@H](Cc1c[nH]c2c(C)cccc12)C(=O)NC(C)(C)C(=O)N[C@H](C(=O)N[C@H](C)C(=O)N[C@@H](Cc1cccnc1)C(=O)N[C@@H](CC(C)C)C(=O)N[C@@H](CCCC)C(=O)N(C)CC(N)=O)C(C)C)C(=O)O) [Peptide 20]	> 1000
Palmitoyl-[d(γGlu)][AEEA][AEEA]GE[3Pal][Trp(7-Me)][Aib]V[dA][3Pal]L[Nle][Sar]-NH2 (SMILES CCCCCCCCCCCCCCCC(=O)N[C@H](CCC(=O)NCCOCCOCC(=O)NCCOCCOCC(=O)NCC(=O)N[C@@H](CCC(=O)O)C(=O)N[C@@H](Cc1cccnc1)C(=O)N[C@@H](Cc1c[nH]c2c(C)cccc12)C(=O)NC(C)(C)C(=O)N[C@H](C(=O)N[C@H](C)C(=O)N[C@@H](Cc1cccnc1)C(=O)N[C@@H](CC(C)C)C(=O)N[C@@H](CCCC)C(=O)N(C)CC(N)=O)C(C)C)C(=O)O) [Peptide 18]	~1000
Palmitoyl-[d(γGlu)][AEEA][AEEA]GNHWAV[dA][3Pal]L[Nle]-NH2 (SMILES CCCCCCCCCCCCCCCC(=O)N[C@H](CCC(=O)NCCOCCOCC(=O)NCCOCCOCC(=O)NCC(=O)N[C@@H](CC(N)=O)C(=O)N[C@@H](Cc1c[nH]cn1)C(=O)N[C@@H](Cc1c[nH]c2ccccc12)C(=O)N[C@@H](C)C(=O)N[C@H](C(=O)N[C@H](C)C(=O)N[C@@H](Cc1cccnc1)C(=O)N[C@@H](CC(C)C)C(=O)N[C@@H](CCCC)C(N)=O)C(C)C)C(=O)O) [Peptide 17]	3

Other lines, results leading:

hIP1 GRPR EC50 [nM]	Binder
3.8	{C20 diacid}-[γGlu][γGlu][AEEA][AEEA]GQH[Trp(7-Me)]AV[BABA][NMeH]L[Nle]-NH2 [Peptide 270]
10.2	{C20 diacid}-[γGlu][γGlu][AEEA][AEEA]GQHWAV[ACPC]HL[Nle]-NH2 (reading uncertain) [Peptide 271]
4.9	{C20 diacid}-[γGlu][γGlu][AEEA][AEEA]GNH[αMeW]AV[βAla]HL[Nle]-NH2 (SMILES CCCC[C@H](NC(=O)[C@H](CC(C)C)NC(=O)[C@H](Cc1c[nH]cn1)NC(=O)CCNC(=O)[C@@H](NC(=O)[C@H](C)NC(=O)[C@](C)(Cc1c[nH]c2ccccc12)NC(=O)[C@H](Cc1c[nH]cn1)NC(=O)[C@H](CC(N)=O)NC(=O)CNC(=O)COCCOCCNC(=O)COCCOCCNC(=O)CC[C@H](NC(=O)CC[C@H](NC(=O)CCCCCCCCCCCCCCCCCCC(=O)O)C(=O)O)C(=O)O)C(C)C)C(N)=O) [Peptide 274]
12.3	{C20 diacid}-[γGlu]E[AEEA][AEEA]GQHWAV[ACBA]HL[Nle]-NH2 (reading uncertain) [Peptide 273]
13.1	{C20 diacid}-[γGlu][γGlu][AEEA][AEEA]SEH[Trp(7-Me)]AV[BABA][NMeH]L[Nle]-NH2 [Peptide 277]
10.8	{C20 diacid}-[γGlu][γGlu][AEEA][AEEA]GDH[Trp(7-Me)]AV[BABA][NMeH]L[Nle]-NH2 [Peptide 278]
12.3	{C20 diacid}-[γGlu][γGlu][PEG5′]GEH[Trp(7-Me)]AV[BABA]HL[Nle]-NH2 [Peptide 275]
6	{C20 diacid}-[γGlu][γGlu][AEEA][AEEA]GQHWAV[ACPA]HL[Nle]-NH2 (reading uncertain) [Peptide 272]
63.8	{C20 diacid}-[γGlu][AEEA][AEEA]GQHWAV[βAla]HL[Met(O)]-NH2 (SMILES CC(C)C[C@H](NC(=O)[C@H](Cc1c[nH]cn1)NC(=O)CCNC(=O)[C@@H](NC(=O)[C@H](C)NC(=O)[C@H](Cc1c[nH]c2ccccc12)NC(=O)[C@H](Cc1c[nH]cn1)NC(=O)[C@H](CCC(N)=O)NC(=O)CNC(=O)COCCOCCNC(=O)COCCOCCNC(=O)CC[C@H](NC(=O)CCCCCCCCCCCCCCCCCCC(=O)O)C(=O)O)C(C)C)C(=O)N[C@@H](CCS(C)=O)C(N)=O) [Peptide 276]
